Legend:
[1] = target: TCF4 bHLH domain (Homo sapiens) (UniProt P15884); experiment: ITC; conditions: ITC: 20 mM Tris pH 7.5, 150 mM NaCl, 25 C
[2] = target: TCF4 bHLH domain (Homo sapiens) (UniProt P15884); experiment: FP; conditions: 25 C

TCF4 bHLH domain (Homo sapiens), sequence (P15884 565-624): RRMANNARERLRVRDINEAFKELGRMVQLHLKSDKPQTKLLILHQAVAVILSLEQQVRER

For “ACGCACGTGCGT (double strand) [12-mer CG-flanked, X=C]”, the Kd [1] was 370 nM.
With “CCGGTCACGTGTCCTA (double strand) [FAM 16-mer E-box C/C]” the Kd ([2]; ITC: 20 mM Tris pH 7.5, 150 mM NaCl) was 110 nM.
With “CCGGTCACGTGTCCTA (double strand) [FAM 16-mer central CpG 5caC/C]” the Kd ([2]; 5caC at strand 1 C8, ITC: 20 mM Tris pH 7.5, 150 mM NaCl) was 140 nM.
Sequence “CCGGTCACGTGTCCTA (double strand) [FAM 16-mer central CpG F/C]” has a Kd ([2]; 5fC at strand 1 C8, ITC: 20 mM Tris pH 7.5, 150 mM NaCl) of 190 nM.
“CCGGTCACGTGTCCTA (double strand) [FAM 16-mer central CpG H/C]” was tested, and the Kd ([2]; 5hmC at strand 1 C8, ITC: 20 mM Tris pH 7.5, 150 mM NaCl) was 160 nM.
Sequence “CCGGTCACGTGTCCTA (double strand) [FAM 16-mer central CpG M/C]” has a Kd ([2]; 5mC at strand 1 C8, ITC: 20 mM Tris pH 7.5, 150 mM NaCl) of 160 nM.

— paper PMC6895265
